# Data taken from patent US20250320295A1 (INHIBRX BIOSCIENCES, published 2025).
# Target: T1, Human CD8a (human, UniProt P01732 22-235)
# T1 construct: also called CD8α; human CD8a-FL
# Test: flow cytometry, HEK293F cells transfected with human CD8a (citrine+ gate)
# Protocol: Binding of polypeptides comprising a humanized CD8a-binding VHH domain, an Fc region, and, in certain polypeptides, a mutated, attenuated IL-2 fused to the C-terminus of the Fc region, was assessed by flow cytometry on HEK293F cells transiently transfected with a plasmid encoding human CD8α or CD8b chains. […] Complexes or polypeptides that are not labeled “KiH” form homodimers under physiologic conditions. The transfected cells were plated in a 96-well plate at 50,000 cells per well in FACS buffer (PBS, 1% BSA, 0.1% NaN₃, pH 7.4). Test polypeptides were then diluted to 2× the final concentration of 500 nM, and a 6-fold serial dilution was made. FACS buffer with no polypeptide was used as a secondary antibody-only control. Test polypeptides were added to an equal volume of cells, and assay plates were incubated for 30 minutes at 4° C. After washing twice with 150 μL of FACS buffer per well, the cells were resuspended in FACS buffer with a fluorescently-labeled anti-human Fc antibody diluted 1:1000 to detect CD8 binding. Assay plates were incubated at 4° C. for 30 minutes. After one additional wash with 150 μL of FACS buffer, polypeptide bound to CD8 was detected by flow cytometry on cells positive for the transfection marker citrine. Binding was measured on these cell populations as mean fluorescence intensity (MFI) at 647 nm. Flow cytometric detection was performed on an IntelliCyt iQue Screener Plus. The data were plotted and analyzed using GraphPad Prism analysis software.
# T1 sequence (P01732 22-235): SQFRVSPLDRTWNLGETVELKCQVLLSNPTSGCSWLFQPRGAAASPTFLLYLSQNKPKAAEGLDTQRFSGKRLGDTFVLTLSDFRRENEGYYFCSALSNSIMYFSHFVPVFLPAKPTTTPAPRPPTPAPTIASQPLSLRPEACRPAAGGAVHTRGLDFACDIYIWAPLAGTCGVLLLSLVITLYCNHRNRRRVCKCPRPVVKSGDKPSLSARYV
Binder,Kd [nM],Bmax (MFI)
"hzB7v21-xELL-P329G-KiH Fc-IL-2 mutant (Fc fusion, Knob-in-hole heterodimer: VHH on the N-terminus of each Fc, mutant IL-2 only on the knob Fc; not shown: mutant, attenuated IL-2 fused to the C-terminus of the knob Fc) chain 1: QVQLVQSGGGEVQPGGSLRLSCAASGFTFDDYAMSWVRQAPGKGLEWVSTITWDAEGTDYAESVKGRFTISRDNAKNTVYLQMSSLRAEDTAVYYCAKGSPELQYDTWGQGTLVTVKPDKTHTCPPCPAPGGPSVFLFPPKPKDTLMISRTPEVTCVVVDVSHEDPEVKFNWYVDGVEVHNAKTKPREEQYNSTYRVVSVLTVLHQDWLNGKEYKCKVSNKALGAPIEKTISKAKGQPREPQVCTLPPSRDELTKNQVSLSCAVKGFYPSDIAVEWESNGQPENNYKTTPPVLDSDGSFFLVSKLTVDKSRWQQGNVFSCSVMHEALHNRYTQKSLSLSPG chain 2: QVQLVQSGGGEVQPGGSLRLSCAASGFTFDDYAMSWVRQAPGKGLEWVSTITWDAEGTDYAESVKGRFTISRDNAKNTVYLQMSSLRAEDTAVYYCAKGSPELQYDTWGQGTLVTVKPDKTHTCPPCPAPGGPSVFLFPPKPKDTLMISRTPEVTCVVVDVSHEDPEVKFNWYVDGVEVHNAKTKPREEQYNSTYRVVSVLTVLHQDWLNGKEYKCKVSNKALGAPIEKTISKAKGQPREPQVYTLPPCRDELTKNQVSLWCLVKGFYPSDIAVEWESNGQPENNYKTTPPVLDSDGSFFLYSKLTVDKSRWQQGNVFSCSVMHEALHNHYTQKSLSLSPG",5.23,
"hzB7v19-xELL-P329G-KiH Fc-IL-2 mutant (Fc fusion, Knob-in-hole heterodimer: VHH on the N-terminus of each Fc, mutant IL-2 only on the knob Fc; not shown: mutant, attenuated IL-2 fused to the C-terminus of the knob Fc) chain 1: QVQLVESGGGEVQPGGSLRLSCAASGFTFDDYAMSWVRQAPGKGLEWVSTITWDAEGTDYAESVKGRFTISRDNAKNTVYLQMSSLRAEDTAVYYCAKGSPELQYDTWGQGTLVTVKPDKTHTCPPCPAPGGPSVFLFPPKPKDTLMISRTPEVTCVVVDVSHEDPEVKFNWYVDGVEVHNAKTKPREEQYNSTYRVVSVLTVLHQDWLNGKEYKCKVSNKALGAPIEKTISKAKGQPREPQVCTLPPSRDELTKNQVSLSCAVKGFYPSDIAVEWESNGQPENNYKTTPPVLDSDGSFFLVSKLTVDKSRWQQGNVFSCSVMHEALHNRYTQKSLSLSPG chain 2: QVQLVESGGGEVQPGGSLRLSCAASGFTFDDYAMSWVRQAPGKGLEWVSTITWDAEGTDYAESVKGRFTISRDNAKNTVYLQMSSLRAEDTAVYYCAKGSPELQYDTWGQGTLVTVKPDKTHTCPPCPAPGGPSVFLFPPKPKDTLMISRTPEVTCVVVDVSHEDPEVKFNWYVDGVEVHNAKTKPREEQYNSTYRVVSVLTVLHQDWLNGKEYKCKVSNKALGAPIEKTISKAKGQPREPQVYTLPPCRDELTKNQVSLWCLVKGFYPSDIAVEWESNGQPENNYKTTPPVLDSDGSFFLYSKLTVDKSRWQQGNVFSCSVMHEALHNHYTQKSLSLSPG",7.5,
"hzB7v20-xELL-P329G-KiH Fc-IL-2 mutant (Fc fusion, Knob-in-hole heterodimer: VHH on the N-terminus of each Fc, mutant IL-2 only on the knob Fc; not shown: mutant, attenuated IL-2 fused to the C-terminus of the knob Fc) chain 1: EVQLVQSGGGEVQPGGSLRLSCAASGFTFDDYAMSWVRQAPGKGLEWVSTITWDAEGTDYAESVKGRFTISRDNAKNTVYLQMSSLRAEDTAVYYCAKGSPELQYDTWGQGTLVTVKPDKTHTCPPCPAPGGPSVFLFPPKPKDTLMISRTPEVTCVVVDVSHEDPEVKFNWYVDGVEVHNAKTKPREEQYNSTYRVVSVLTVLHQDWLNGKEYKCKVSNKALGAPIEKTISKAKGQPREPQVCTLPPSRDELTKNQVSLSCAVKGFYPSDIAVEWESNGQPENNYKTTPPVLDSDGSFFLVSKLTVDKSRWQQGNVFSCSVMHEALHNRYTQKSLSLSPG chain 2: EVQLVQSGGGEVQPGGSLRLSCAASGFTFDDYAMSWVRQAPGKGLEWVSTITWDAEGTDYAESVKGRFTISRDNAKNTVYLQMSSLRAEDTAVYYCAKGSPELQYDTWGQGTLVTVKPDKTHTCPPCPAPGGPSVFLFPPKPKDTLMISRTPEVTCVVVDVSHEDPEVKFNWYVDGVEVHNAKTKPREEQYNSTYRVVSVLTVLHQDWLNGKEYKCKVSNKALGAPIEKTISKAKGQPREPQVYTLPPCRDELTKNQVSLWCLVKGFYPSDIAVEWESNGQPENNYKTTPPVLDSDGSFFLYSKLTVDKSRWQQGNVFSCSVMHEALHNHYTQKSLSLSPG",4.48,
"hzB7v23-xELL-P329G-KiH Fc-IL-2 mutant (Fc fusion, Knob-in-hole heterodimer: VHH on the N-terminus of each Fc, mutant IL-2 only on the knob Fc; not shown: mutant, attenuated IL-2 fused to the C-terminus of the knob Fc) chain 1: QVQLVQSGGGEVQPGGSLRLSCAASGFTFDSYAMSWVRQAPGKGLEWVSTITWDAEGTDYAESVKGRFTISRDNAKNTVYLQMSSLRAEDTAVYYCAKGSPELQYDTWGQGTLVTVKPDKTHTCPPCPAPGGPSVFLFPPKPKDTLMISRTPEVTCVVVDVSHEDPEVKFNWYVDGVEVHNAKTKPREEQYNSTYRVVSVLTVLHQDWLNGKEYKCKVSNKALGAPIEKTISKAKGQPREPQVCTLPPSRDELTKNQVSLSCAVKGFYPSDIAVEWESNGQPENNYKTTPPVLDSDGSFFLVSKLTVDKSRWQQGNVFSCSVMHEALHNRYTQKSLSLSPG chain 2: QVQLVQSGGGEVQPGGSLRLSCAASGFTFDSYAMSWVRQAPGKGLEWVSTITWDAEGTDYAESVKGRFTISRDNAKNTVYLQMSSLRAEDTAVYYCAKGSPELQYDTWGQGTLVTVKPDKTHTCPPCPAPGGPSVFLFPPKPKDTLMISRTPEVTCVVVDVSHEDPEVKFNWYVDGVEVHNAKTKPREEQYNSTYRVVSVLTVLHQDWLNGKEYKCKVSNKALGAPIEKTISKAKGQPREPQVYTLPPCRDELTKNQVSLWCLVKGFYPSDIAVEWESNGQPENNYKTTPPVLDSDGSFFLYSKLTVDKSRWQQGNVFSCSVMHEALHNHYTQKSLSLSPG",3.9,1.43e+07
"hzB7v24-xELL-P329G-KiH Fc-IL-2 mutant (Fc fusion, Knob-in-hole heterodimer: VHH on the N-terminus of each Fc, mutant IL-2 only on the knob Fc; not shown: mutant, attenuated IL-2 fused to the C-terminus of the knob Fc) chain 1: QVQLVQSGGGEVQPGGSLRLSCAASGFTFSSYAMSWVRQAPGKGLEWVSTITWDAEGTDYAESVKGRFTISRDNAKNTVYLQMSSLRAEDTAVYYCAKGSPELQYDTWGQGTLVTVKPDKTHTCPPCPAPGGPSVFLFPPKPKDTLMISRTPEVTCVVVDVSHEDPEVKFNWYVDGVEVHNAKTKPREEQYNSTYRVVSVLTVLHQDWLNGKEYKCKVSNKALGAPIEKTISKAKGQPREPQVCTLPPSRDELTKNQVSLSCAVKGFYPSDIAVEWESNGQPENNYKTTPPVLDSDGSFFLVSKLTVDKSRWQQGNVFSCSVMHEALHNRYTQKSLSLSPG chain 2: QVQLVQSGGGEVQPGGSLRLSCAASGFTFSSYAMSWVRQAPGKGLEWVSTITWDAEGTDYAESVKGRFTISRDNAKNTVYLQMSSLRAEDTAVYYCAKGSPELQYDTWGQGTLVTVKPDKTHTCPPCPAPGGPSVFLFPPKPKDTLMISRTPEVTCVVVDVSHEDPEVKFNWYVDGVEVHNAKTKPREEQYNSTYRVVSVLTVLHQDWLNGKEYKCKVSNKALGAPIEKTISKAKGQPREPQVYTLPPCRDELTKNQVSLWCLVKGFYPSDIAVEWESNGQPENNYKTTPPVLDSDGSFFLYSKLTVDKSRWQQGNVFSCSVMHEALHNHYTQKSLSLSPG",6.54,1.28e+07
"hzB7v25-xELL-P329G-KiH Fc-IL-2 mutant (Fc fusion, Knob-in-hole heterodimer: VHH on the N-terminus of each Fc, mutant IL-2 only on the knob Fc; not shown: mutant, attenuated IL-2 fused to the C-terminus of the knob Fc) chain 1: QVQLVQSGGGEVQPGGSLRLSCAASGFTFDDYAMSWVRQAPGKGLEWVSTITWSAEGTDYAESVKGRFTISRDNAKNTVYLQMSSLRAEDTAVYYCAKGSPELQYDTWGQGTLVTVKPDKTHTCPPCPAPGGPSVFLFPPKPKDTLMISRTPEVTCVVVDVSHEDPEVKFNWYVDGVEVHNAKTKPREEQYNSTYRVVSVLTVLHQDWLNGKEYKCKVSNKALGAPIEKTISKAKGQPREPQVCTLPPSRDELTKNQVSLSCAVKGFYPSDIAVEWESNGQPENNYKTTPPVLDSDGSFFLVSKLTVDKSRWQQGNVFSCSVMHEALHNRYTQKSLSLSPG chain 2: QVQLVQSGGGEVQPGGSLRLSCAASGFTFDDYAMSWVRQAPGKGLEWVSTITWSAEGTDYAESVKGRFTISRDNAKNTVYLQMSSLRAEDTAVYYCAKGSPELQYDTWGQGTLVTVKPDKTHTCPPCPAPGGPSVFLFPPKPKDTLMISRTPEVTCVVVDVSHEDPEVKFNWYVDGVEVHNAKTKPREEQYNSTYRVVSVLTVLHQDWLNGKEYKCKVSNKALGAPIEKTISKAKGQPREPQVYTLPPCRDELTKNQVSLWCLVKGFYPSDIAVEWESNGQPENNYKTTPPVLDSDGSFFLYSKLTVDKSRWQQGNVFSCSVMHEALHNHYTQKSLSLSPG",3.28,1.45e+07
"hzB7v26-xELL-P329G-KiH Fc-IL-2 mutant (Fc fusion, Knob-in-hole heterodimer: VHH on the N-terminus of each Fc, mutant IL-2 only on the knob Fc; not shown: mutant, attenuated IL-2 fused to the C-terminus of the knob Fc) chain 1: QVQLVQSGGGEVQPGGSLRLSCAASGFTFDDYAMSWVRQAPGKGLEWVSTITWDAGGTDYAESVKGRFTISRDNAKNTVYLQMSSLRAEDTAVYYCAKGSPELQYDTWGQGTLVTVKPDKTHTCPPCPAPGGPSVFLFPPKPKDTLMISRTPEVTCVVVDVSHEDPEVKFNWYVDGVEVHNAKTKPREEQYNSTYRVVSVLTVLHQDWLNGKEYKCKVSNKALGAPIEKTISKAKGQPREPQVCTLPPSRDELTKNQVSLSCAVKGFYPSDIAVEWESNGQPENNYKTTPPVLDSDGSFFLVSKLTVDKSRWQQGNVFSCSVMHEALHNRYTQKSLSLSPG chain 2: QVQLVQSGGGEVQPGGSLRLSCAASGFTFDDYAMSWVRQAPGKGLEWVSTITWDAGGTDYAESVKGRFTISRDNAKNTVYLQMSSLRAEDTAVYYCAKGSPELQYDTWGQGTLVTVKPDKTHTCPPCPAPGGPSVFLFPPKPKDTLMISRTPEVTCVVVDVSHEDPEVKFNWYVDGVEVHNAKTKPREEQYNSTYRVVSVLTVLHQDWLNGKEYKCKVSNKALGAPIEKTISKAKGQPREPQVYTLPPCRDELTKNQVSLWCLVKGFYPSDIAVEWESNGQPENNYKTTPPVLDSDGSFFLYSKLTVDKSRWQQGNVFSCSVMHEALHNHYTQKSLSLSPG",4.55,1.52e+07
"hzB7v27-xELL-P329G-KiH Fc-IL-2 mutant (Fc fusion, Knob-in-hole heterodimer: VHH on the N-terminus of each Fc, mutant IL-2 only on the knob Fc; not shown: mutant, attenuated IL-2 fused to the C-terminus of the knob Fc) chain 1: QVQLVQSGGGEVQPGGSLRLSCAASGFTFDDYAMSWVRQAPGKGLEWVSTITWDAEGTYYAESVKGRFTISRDNAKNTVYLQMSSLRAEDTAVYYCAKGSPELQYDTWGQGTLVTVKPDKTHTCPPCPAPGGPSVFLFPPKPKDTLMISRTPEVTCVVVDVSHEDPEVKFNWYVDGVEVHNAKTKPREEQYNSTYRVVSVLTVLHQDWLNGKEYKCKVSNKALGAPIEKTISKAKGQPREPQVCTLPPSRDELTKNQVSLSCAVKGFYPSDIAVEWESNGQPENNYKTTPPVLDSDGSFFLVSKLTVDKSRWQQGNVFSCSVMHEALHNRYTQKSLSLSPG chain 2: QVQLVQSGGGEVQPGGSLRLSCAASGFTFDDYAMSWVRQAPGKGLEWVSTITWDAEGTYYAESVKGRFTISRDNAKNTVYLQMSSLRAEDTAVYYCAKGSPELQYDTWGQGTLVTVKPDKTHTCPPCPAPGGPSVFLFPPKPKDTLMISRTPEVTCVVVDVSHEDPEVKFNWYVDGVEVHNAKTKPREEQYNSTYRVVSVLTVLHQDWLNGKEYKCKVSNKALGAPIEKTISKAKGQPREPQVYTLPPCRDELTKNQVSLWCLVKGFYPSDIAVEWESNGQPENNYKTTPPVLDSDGSFFLYSKLTVDKSRWQQGNVFSCSVMHEALHNHYTQKSLSLSPG",3.18,1.45e+07
